Experimental data published in PMC8239462 (2021).

How the values were obtained:
[1] = molecular target: LRP1 Cluster IV (commercial) (Homo sapiens); assay: SPR
[2] = molecular target: T1, vLDLR CR cluster (8 CRs), recombinant, secreted from Sf9 cells (human, UniProt P98155 28-355); assay: SPR; vLDLR cluster expressed without RAP (RAP-)
LRP1 CR.7 singlet [3] = molecular target: T2, LRP1 CR.7 singlet (human, UniProt Q07954 1013-1053); assay: SPR; CR.7 expressed with RAP (RAP+)
LRP1 CR.7 singlet [4] = molecular target: T2, LRP1 CR.7 singlet; assay: SPR; CR.7 expressed without RAP (RAP-)
[5] = molecular target: T1, vLDLR CR cluster (8 CRs), recombinant, …; assay: SPR; vLDLR cluster expressed with RAP (RAP+)

T2 sequence (Q07954 1013-1053): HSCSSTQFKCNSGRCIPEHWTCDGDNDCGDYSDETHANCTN
Chain of LRP1 Cluster IV (commercial) (Homo sapiens) (chain, as listed by the source): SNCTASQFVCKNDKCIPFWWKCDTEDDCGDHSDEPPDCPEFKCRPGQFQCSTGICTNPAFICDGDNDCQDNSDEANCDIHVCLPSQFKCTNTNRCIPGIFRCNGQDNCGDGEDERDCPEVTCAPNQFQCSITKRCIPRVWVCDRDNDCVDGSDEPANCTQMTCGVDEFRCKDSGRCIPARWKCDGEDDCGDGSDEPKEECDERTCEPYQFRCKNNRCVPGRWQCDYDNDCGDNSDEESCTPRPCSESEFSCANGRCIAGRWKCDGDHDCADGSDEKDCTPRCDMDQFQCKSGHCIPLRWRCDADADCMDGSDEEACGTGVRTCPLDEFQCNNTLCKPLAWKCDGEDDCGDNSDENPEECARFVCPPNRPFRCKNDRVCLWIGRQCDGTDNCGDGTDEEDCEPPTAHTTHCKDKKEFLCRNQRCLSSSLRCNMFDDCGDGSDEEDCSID

B1: RAP (commercial; R&D, 4296-LR) (natural protein)
chain: YSREKNQPKPSPKRESGEEFRMEKLNQLWEKAQRLHLPPVRLAELHADLKIQERDELAWKKLKLDGLDEDGEKEARLIRNLNVILAKYGLDGKKDARQVTSNSLSGTQEDGLDDPRLEKLWHKAKTSGKFSGEELDKLWREFLHHKEKVHEYNVLLETLSRTEEIHENVISPSDLSDIKGSVLHSRHTELKEKLRSINQGLDRLRRVSHQGYSTEAEFEEPRVIDLWDLAQSANLTDKELEAFREELKHFEAKIEKHNHYQKQLEIAHEKLRHAESVGDGERVSRSREKHALLEGRTKELGYTVKKHLQDLSGRISRARHNEL
modifications: Limits by convention: cluster IV = CR.21-31 (LDL-receptor class A repeats 21-31); vendor limits are not printed. Likely supplied as an Fc chimera, as for commercial cluster II (Fc omitted; may be a dimer). Ca2+-bound, three disulfides per CR.
- Kd [1]: ~2.5 nM

B2: RAP (commercial; R&D, 4296-LR) (natural protein)
chain: YSREKNQPKPSPKRESGEEFRMEKLNQLWEKAQRLHLPPVRLAELHADLKIQERDELAWKKLKLDGLDEDGEKEARLIRNLNVILAKYGLDGKKDARQVTSNSLSGTQEDGLDDPRLEKLWHKAKTSGKFSGEELDKLWREFLHHKEKVHEYNVLLETLSRTEEIHENVISPSDLSDIKGSVLHSRHTELKEKLRSINQGLDRLRRVSHQGYSTEAEFEEPRVIDLWDLAQSANLTDKELEAFREELKHFEAKIEKHNHYQKQLEIAHEKLRHAESVGDGERVSRSREKHALLEGRTKELGYTVKKHLQDLSGRISRARHNEL
- Kd [2]: ~1.7 nM
- Kd (LRP1 CR.7 singlet [3]): 37.6 nM
- Kd (LRP1 CR.7 singlet [4]): 67.9 nM
- Kd [5]: ~1.6 nM
